Source: publication PMC3043148 (Biochemistry, 2011)
Positions count from the first letter of the chain named. Names and notes keep the numbering of the source. Read-outs that look alike come from different tables or passages of the source.

B1: human adenylosuccinate lyase (ASL), wild type, His-tag (enzyme)
chain: MAAGGDHGSPDSYRSPLASRYASPEMCFVFSDRYKFRTWRQLWLWLAEAEQTLGLPITDEQIQEMKSNLENIDFKMAAEEEKRLRHDVMAHVHTFGHCCPKAAGIIHLGATSCYVGDNTDLIILRNALDLLLPKLARVISRLADFAKERASLPTLGFTHFQPAQLTTVGKRCCLWIQDLCMDLQNLKRVRDDLRFRGVKGTTGTQASFLQLFEGDDHKVEQLDKMVTEKAGFKRAFIITGQTYTRKVDIEVLSVLASLGASVHKICTDIRLLANLKEMEEPFEKQQIGSSAMPYKRNPMRSERCCSLARHLMTLVMDPLQTASVQWFERTLDDSANRRICLAEAFLTADTILNTLQNISEGLVVYPKVIERRIRQELPFMATENIIMAMVKAGGSRQDCHEKIRVLSQQAASVVKQEGGDNDLIERIQVDAYFSPIHSQLDHLLDPSSFTGRASQQVQRFLEEEVYPLLKPYESVMKVKAE
B2: human adenylosuccinate lyase (ASL) R396C, His-tag (enzyme)
chain: B1 chain with R396C
B3: human adenylosuccinate lyase (ASL) R194C, His-tag (enzyme)
chain: B1 chain with R194C
B4: human adenylosuccinate lyase (ASL) R396C, non-His-tag (enzyme)
chain: B1 chain with R396C
B5: human adenylosuccinate lyase (ASL) L311V, His-tag (enzyme)
chain: B1 chain with L311V
B6: human adenylosuccinate lyase (ASL) R396H, non-His-tag (enzyme)
chain: B1 chain with R396H
B7: human adenylosuccinate lyase (ASL), wild type, non-His-tag (enzyme)
chain: B1 chain
B8: human adenylosuccinate lyase (ASL) R396H, His-tag (enzyme)
chain: B1 chain with R396H

How the values were obtained:
AUC [1] = molecular target: the molecule itself; assay: AUC
AUC [2] = molecular target: the molecule itself; assay: AUC; remark: listed apart in the source
[3] = molecular target: B3; assay: in vitro subunit hybridisation with separation on Ni-NTA
[4] = molecular target: B1; assay: as above
[5] = molecular target: B3; assay: AUC
[6] = molecular target: B1; assay: AUC
[7] = molecular target: B3; assay: AUC; remark: listed apart in the source
[8] = molecular target: B1; assay: AUC; remark: listed apart in the source
AUC [9] = molecular target: the molecule itself; assay: AUC; remark: listed apart in the source
[10] = molecular target: B5; assay: in vitro subunit hybridisation with separation on Ni-NTA
[11] = molecular target: B5; assay: AUC
[12] = molecular target: B5; assay: AUC; remark: listed apart in the source
AUC [13] = molecular target: the molecule itself; assay: AUC; remark: listed apart in the source

B1
stoichiometry N (AUC [1]): 4
percent tetramer (M-Tet model) (AUC [2]): 77%

B2
stoichiometry N (AUC [1]): 4
percent tetramer (M-Tet model) (AUC [2]): 78%

B3
stoichiometry N (AUC [1]): 4
percent tetramer (M-Tet model) (AUC [2]): 73%

B4
subunit ratio (Non-His-tag: His-tag) by SDS-PAGE, pool 2 [3]: 1.2 non-His-tag per His-tag subunit
subunit ratio (Non-His-tag: His-tag) by SDS-PAGE, pool 3 [3]: 3.2 His-tag per non-His-tag subunit
subunit ratio (Non-His-tag: His-tag) by SDS-PAGE, pool 2 [4]: 1.2 non-His-tag per His-tag subunit
subunit ratio (Non-His-tag: His-tag) by SDS-PAGE, pool 3 [4]: 2.3 His-tag per non-His-tag subunit
percent tetramer (M-Tet model), pool 2 [5]: 78%
percent tetramer (M-Tet model), pool 3 [5]: 80%
percent tetramer (M-Tet model), pool 2 [6]: 72%
percent tetramer (M-Tet model), pool 3 [6]: 70%
stoichiometry N [7]: 4
stoichiometry N [8]: 4
stoichiometry N (AUC [9]): 4

B5
stoichiometry N (AUC [1]): 4
percent tetramer (M-Tet model) (AUC [2]): 68%

B6
subunit ratio (Non-His-tag: His-tag) by SDS-PAGE, pool 2 [10]: 1.8 non-His-tag per His-tag subunit
subunit ratio (Non-His-tag: His-tag) by SDS-PAGE, pool 3 [10]: 1 non-His-tag per His-tag subunit
subunit ratio (Non-His-tag: His-tag) by SDS-PAGE, pool 2 [4]: 1.1 non-His-tag per His-tag subunit
subunit ratio (Non-His-tag: His-tag) by SDS-PAGE, pool 3 [4]: 1.6 His-tag per non-His-tag subunit
percent tetramer (M-Tet model), pool 2 [11]: 74%
percent tetramer (M-Tet model), pool 3 [11]: 74%
percent tetramer (M-Tet model), pool 2 [6]: 73%
percent tetramer (M-Tet model), pool 3 [6]: 72%
stoichiometry N [12]: 4
stoichiometry N [8]: 4
stoichiometry N (AUC [9]): 4

B7
subunit ratio (Non-His-tag: His-tag) by SDS-PAGE, pool 2 [4]: 1.3 non-His-tag per His-tag subunit
subunit ratio (Non-His-tag: His-tag) by SDS-PAGE, pool 3 [4]: 3.7 His-tag per non-His-tag subunit
percent tetramer (M-Tet model), pool 2 [6]: 73%
percent tetramer (M-Tet model), pool 3 [6]: 75%
percent tetramer (M-Tet model), pool 1 (AUC [13]): 68%

B8
stoichiometry N (AUC [1]): 4
